Reference: publication PMC6879610 (Nature Communications, 2019)

Key:
Conditions in all cases: both partners purified
MPER peptide PDT-081 [1] = biological target: T1, MPER peptide PDT-081 (HIV-1, strain  (synthetic …)); experiment: BLI; Octet RED96; biotinylated MPER peptide PDT-081 (7.5 ug/ml) captured on streptavidin biosensors; serial dilution of Fab, 5 min association, 5 min dissociation; PBS/0.002% Tween 20/0.01% bovine serum albumin; KD = koff/kon from five sensorgrams of the dilution series
T1 construct: also called PDT081pept
T1 sequence (P05877 655-684): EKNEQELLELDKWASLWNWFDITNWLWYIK

MPER peptide PDT-081 [2] = biological target: T1, MPER peptide PDT-081; experiment: as above; remark: listed apart in the source
MPER peptide PDT-081 [3] = biological target: T1, MPER peptide PDT-081; experiment: as above; remark: listed apart in the source
ovalbumin = ovalbumin (Gallus gallus (species assumed), UniProt P01012); experiment: ELISA; 250 ng antigen per well coated overnight at 4 °C in PBS; serial dilutions of antibody 1 h at 37 °C; detected with anti-human IgG Fc-HRP
MPER peptide PDT-081 [4] = biological target: T2, MPER peptide PDT-081 (HIV-1, strain  (synthetic …)); experiment: BLI; Octet RED96; biotinylated peptide PDT-081 (7.5 μg/ml) on streptavidin biosensors; serial dilution of Fab, 5 min association, 5 min dissociation; PBS/0.002% Tween 20/0.01% BSA; KD as koff/kon
T2 construct: also called full-length MPER
T2 sequence (P05877 655-684): as above

MPER peptide PDT-081 [5] = biological target: T2, MPER peptide PDT-081; experiment: ELISA; 250 ng antigen per well coated overnight at 4 °C in PBS; serial dilutions of antibody 1 h at 37 °C; detected with anti-human IgG Fc-HRP
MPER peptide PDT-081 [6] = biological target: T1, MPER peptide PDT-081; experiment: BLI; Octet RED96; biotinylated MPER peptide PDT-081 (7.5 ug/ml) captured on streptavidin biosensors; serial dilution of Fab, 5 min association, 5 min dissociation; PBS/0.002% Tween 20/0.01% bovine serum albumin; KD = koff/kon from five sensorgrams of the dilution series; remark: listed apart in the source
MPER peptide PDT-081 [7] = biological target: T1, MPER peptide PDT-081; experiment: as above; remark: listed apart in the source
MPER peptide PDT-081 [8] = biological target: T1, MPER peptide PDT-081; experiment: as above; remark: listed apart in the source

B1: H4K3_SFS28EPE Fab (Fab, V domains shown)
VH: KVQLVQSGAELKKPWSSVRVSCKASGGEPESYAFNWVRQAPGQRLEWLGGIVPLVSSTNYAQRFRGRVTISADRSTSTVYLEMTGLTSADTAVYFCAREGEGWFGRPLRAFEFWGQGTLVTVST
VL: EIVLTQSPGTFALSPGERATLSCRASQSVSGGALAWYQQKAGQAPRLLIYDTSGRATGVPGRFSGSGSETDFSLTISRLEPEDFAVYYCQQYGTSQSTFGQGTRLETR
Kd (MPER peptide PDT-081 [1]): 15.1 nM
koff (MPER peptide PDT-081 [1]): 0.000539 s⁻¹
kon (MPER peptide PDT-081 [1]): 35700 M⁻¹ s⁻¹

B2: H4K3_RS73PE Fab (Fab, V domains shown)
VH: KVQLVQSGAELKKPWSSVRVSCKASGGSFSSYAFNWVRQAPGQRLEWLGGIVPLVSSTNYAQRFRGRVTISADPETSTVYLEMTGLTSADTAVYFCAREGEGWFGRPLRAFEFWGQGTLVTVST
VL: EIVLTQSPGTFALSPGERATLSCRASQSVSGGALAWYQQKAGQAPRLLIYDTSGRATGVPGRFSGSGSETDFSLTISRLEPEDFAVYYCQQYGTSQSTFGQGTRLETR
Kd (MPER peptide PDT-081 [2]): 12.8 nM
koff (MPER peptide PDT-081 [2]): 0.000509 s⁻¹
kon (MPER peptide PDT-081 [2]): 39700 M⁻¹ s⁻¹

B3: H4K3_5M Fab (Fab, V domains shown)
VH: KVQLVQSGAELKKPWSSVRVSCKASGGEPESYAFNWVRQAPGQRLEWLGGIVPLVSSTNYAQRFRGRVTISADPETSTVYLEMTGLTSADTAVYFCAREGEGWFGRPLRAFEFWGQGTLVTVST
VL: EIVLTQSPGTFALSPGERATLSCRASQSVSGGALAWYQQKAGQAPRLLIYDTSGRATGVPGRFSGSGSETDFSLTISRLEPEDFAVYYCQQYGTSQSTFGQGTRLETR
Kd (MPER peptide PDT-081 [3]): 23.4 nM
koff (MPER peptide PDT-081 [3]): 0.000674 s⁻¹
kon (MPER peptide PDT-081 [3]): 28800 M⁻¹ s⁻¹

B4: 4E10 (antibody, V domains shown)
VH: QVQLVQSGAEVKRPGSSVTVSCKASGGSFSTYALSWVRQAPGRGLEWMGGVIPLLTITNYAPRFQGRITITADRSTSTAYLELNSLRPEDTAVYYCAREGTTGWGWLGKPIGAFAHWGQGTLVTVSS
VL: EIVLTQSPGTQSLSPGERATLSCRASQSVGNNKLAWYQQRPGQAPRLLIYGASSRPSGVADRFSGSGSGTDFTLTISRLEPEDFAVYYCQQYGQSLSTFGQGTKVEVK
notes: also called BnAb 4E10; mature 4E10
binding result (ovalbumin): binds

B5: 4E10 L100cF (whole antibody) (antibody, V domains shown)
VH: QVQLVQSGAEVKRPGSSVTVSCKASGGSFSTYALSWVRQAPGRGLEWMGGVIPLLTITNYAPRFQGRITITADRSTSTAYLELNSLRPEDTAVYYCAREGTTGWGWFGKPIGAFAHWGQGTLVTVSS
VL: EIVLTQSPGTQSLSPGERATLSCRASQSVGNNKLAWYQQRPGQAPRLLIYGASSRPSGVADRFSGSGSGTDFTLTISRLEPEDFAVYYCQQYGQSLSTFGQGTKVEVK
binding result (ovalbumin): binds

B6: PGZL1 gVmDmJ Fab (Fab, V domains shown)
VH: QVQLVQSGAEVKKPGSSVKVSCKASGGTFSSYAISWVRQAPGQGLEWMGGIIPIFGTANYAQKFQGRVTITADKSTSTAYMELSSLRSEDTAVYYCAREGEGWFGKPLRAFEFWGQGTVITVSS
VL: not shown
notes: also called inferred germline PGZL1 Fab
Kd (MPER peptide PDT-081 [4]): 64.4 nM

B7: PGZL1 gVgDmJ Fab (Fab, V domains shown)
VH: QVQLVQSGAEVKKPGSSVKVSCKASGGTFSSYAISWVRQAPGQGLEWMGGIIPIFGTANYAQKFQGRVTITADKSTSTAYMELSSLRSEDTAVYYCAREGEGWFGEPLRAFEFWGQGTVITVSS
VL: not shown
Kd (MPER peptide PDT-081 [4]): 148 nM

B8: PGZL1 gVgDgJ IgG (antibody, V domains shown)
VH: QVQLVQSGAEVKKPGSSVKVSCKASGGTFSSYAISWVRQAPGQGLEWMGGIIPIFGTANYAQKFQGRVTITADKSTSTAYMELSSLRSEDTAVYYCAREGEGWFGEPLRAFDVWGQGTVITVSS
VL: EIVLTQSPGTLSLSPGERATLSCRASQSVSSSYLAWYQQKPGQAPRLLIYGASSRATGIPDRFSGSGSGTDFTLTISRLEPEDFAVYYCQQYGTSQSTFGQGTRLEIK
fold increase in EC50 (MPER peptide PDT-081 [5]): 369 fold

B9: PGZL1 gVgDgJ Fab (Fab, V domains shown)
VH: QVQLVQSGAEVKKPGSSVKVSCKASGGTFSSYAISWVRQAPGQGLEWMGGIIPIFGTANYAQKFQGRVTITADKSTSTAYMELSSLRSEDTAVYYCAREGEGWFGEPLRAFDVWGQGTVITVSS
VL: not shown
koff (MPER peptide PDT-081 [6]): 0.00802 s⁻¹
kon (MPER peptide PDT-081 [6]): 8550 M⁻¹ s⁻¹

B10: PGZL1 gVgDgJ Fab (Fab, V domains shown)
VH: QVQLVQSGAEVKKPGSSVKVSCKASGGTFSSYAISWVRQAPGQGLEWMGGIIPIFGTANYAQKFQGRVTITADKSTSTAYMELSSLRSEDTAVYYCAREGEGWFGEPLRAFDVWGQGTVITVSS
VL: not shown
Kd (MPER peptide PDT-081 [4]): 938 nM

B11: PGZL1 gVgDmJ Fab (Fab, V domains shown)
VH: QVQLVQSGAEVKKPGSSVKVSCKASGGTFSSYAISWVRQAPGQGLEWMGGIIPIFGTANYAQKFQGRVTITADKSTSTAYMELSSLRSEDTAVYYCAREGEGWFGEPLRAFEFWGQGTVITVSS
VL: not shown
koff (MPER peptide PDT-081 [7]): 0.00197 s⁻¹
kon (MPER peptide PDT-081 [7]): 13300 M⁻¹ s⁻¹

B12: PGZL1 gVmDmJ Fab (Fab, V domains shown)
VH: QVQLVQSGAEVKKPGSSVKVSCKASGGTFSSYAISWVRQAPGQGLEWMGGIIPIFGTANYAQKFQGRVTITADKSTSTAYMELSSLRSEDTAVYYCAREGEGWFGKPLRAFEFWGQGTVITVSS
VL: not shown
koff (MPER peptide PDT-081 [8]): 0.000991 s⁻¹
kon (MPER peptide PDT-081 [8]): 15400 M⁻¹ s⁻¹
